In the test the target is human macrophage mannose receptor C type 1 (MRC1) (human) (UniProt P22897). As to the kind of experiment: flow cytometry on stable pool of MRC1-transfected HT1080 cells compared to untransfected HT1080 cells. For orientation: A flow cytometer gives signals particle by particle.
UniProt P22897, sequence (P22897 19-1456 limits assumed): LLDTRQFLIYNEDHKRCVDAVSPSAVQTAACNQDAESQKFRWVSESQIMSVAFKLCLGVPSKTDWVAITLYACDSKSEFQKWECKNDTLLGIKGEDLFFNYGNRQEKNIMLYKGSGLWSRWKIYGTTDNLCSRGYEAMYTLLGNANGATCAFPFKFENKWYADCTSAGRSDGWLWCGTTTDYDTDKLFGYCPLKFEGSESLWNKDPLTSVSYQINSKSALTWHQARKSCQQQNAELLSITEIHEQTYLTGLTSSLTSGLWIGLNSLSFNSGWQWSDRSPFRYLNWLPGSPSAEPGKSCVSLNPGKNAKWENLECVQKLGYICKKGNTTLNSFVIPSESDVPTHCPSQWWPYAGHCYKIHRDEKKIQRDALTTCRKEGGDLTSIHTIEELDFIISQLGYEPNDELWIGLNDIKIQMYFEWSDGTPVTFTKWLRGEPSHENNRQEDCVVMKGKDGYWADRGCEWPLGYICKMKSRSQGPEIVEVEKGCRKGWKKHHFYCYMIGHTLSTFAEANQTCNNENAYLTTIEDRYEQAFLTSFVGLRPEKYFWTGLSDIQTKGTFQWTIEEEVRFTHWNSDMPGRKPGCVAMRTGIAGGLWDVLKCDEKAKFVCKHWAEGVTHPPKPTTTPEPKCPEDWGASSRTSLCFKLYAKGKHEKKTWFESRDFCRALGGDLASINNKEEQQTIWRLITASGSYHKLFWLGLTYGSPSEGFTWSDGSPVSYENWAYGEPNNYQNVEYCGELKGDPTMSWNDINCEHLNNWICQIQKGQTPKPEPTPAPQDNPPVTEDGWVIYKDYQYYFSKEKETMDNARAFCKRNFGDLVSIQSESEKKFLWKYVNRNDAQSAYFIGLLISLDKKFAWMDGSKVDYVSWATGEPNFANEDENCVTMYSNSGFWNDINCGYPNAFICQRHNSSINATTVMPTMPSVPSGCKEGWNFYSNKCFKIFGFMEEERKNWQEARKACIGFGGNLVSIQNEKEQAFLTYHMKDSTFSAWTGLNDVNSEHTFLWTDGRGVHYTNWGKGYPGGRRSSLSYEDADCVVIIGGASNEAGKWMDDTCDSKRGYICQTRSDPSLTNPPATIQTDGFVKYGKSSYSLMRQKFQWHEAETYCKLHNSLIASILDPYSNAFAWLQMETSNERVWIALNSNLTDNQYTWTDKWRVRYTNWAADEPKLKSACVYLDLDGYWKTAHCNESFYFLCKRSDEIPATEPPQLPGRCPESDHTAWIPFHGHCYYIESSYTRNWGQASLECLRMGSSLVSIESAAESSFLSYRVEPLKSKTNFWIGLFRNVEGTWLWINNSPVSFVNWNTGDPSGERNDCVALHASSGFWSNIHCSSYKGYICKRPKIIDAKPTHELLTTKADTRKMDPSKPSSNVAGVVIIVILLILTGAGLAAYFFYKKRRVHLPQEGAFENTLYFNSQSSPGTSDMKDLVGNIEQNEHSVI

As for “FITC conjugated Mouse anti-human MRC1 antibody (BD Biosciences Cat #551135)”, the Relative Fluorescence Intensity (RFI) above the background was 1.5 logs.

These data come from patent US20130195836A1.
